Results on three molecules are retold here after publication PMC10412574, “Auranofin targets UBA1 and enhances UBA1 activity by facilitating ubiquitin trans-thioesterification to E2 ubiquitin-conjugating enzymes” (Nature Communications, 2023).

Experiment [1] has as its target T1, recombinant UBE2K (UniProt P61086 1-200).
T1 construct: UBE2K, ubiquitin-conjugating enzyme E2 K, recombinant; source: bought: R&D Systems (NBP2-35096)
T1 sequence (looked up): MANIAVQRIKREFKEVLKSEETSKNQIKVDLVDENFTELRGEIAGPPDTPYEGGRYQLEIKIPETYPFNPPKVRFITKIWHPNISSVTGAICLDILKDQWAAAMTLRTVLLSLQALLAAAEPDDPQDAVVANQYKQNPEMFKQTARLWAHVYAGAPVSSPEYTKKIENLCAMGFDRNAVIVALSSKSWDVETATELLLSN
Put plainly: pull-down; MBP fusions of UBA1 fragments (5 ug) on beads, treated with AF 1.5 h and washed, then incubated with recombinant E2 2 h at room temperature in 150 mM NaCl, 10 mM Tris/HCl pH 7.4, 1 mM EDTA, 1 mM EGTA, 0.2% NP-40; immunoblot; in Fig. 2a also after iodoacetamide or with DTT. The note with it: both partners purified.

The target in experiment [2] is T2, recombinant UBE2G2 (UniProt P60604 1-165).
T2 construct: UBE2G2, ubiquitin-conjugating enzyme E2 G2, recombinant; Called His-UBE2G2 only in the charging assays; no tag is named for the pull-downs; also called His-UBE2G2; source: bought: R&D Systems (E2-680-100)
T2 sequence: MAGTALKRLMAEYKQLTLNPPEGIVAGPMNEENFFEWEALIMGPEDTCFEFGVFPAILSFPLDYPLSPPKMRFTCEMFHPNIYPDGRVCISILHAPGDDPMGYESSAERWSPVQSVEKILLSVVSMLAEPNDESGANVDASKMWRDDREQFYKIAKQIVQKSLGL
Described as above. The note with it: both partners purified.

B1: MBP-UFD (942-1058) (domain or fragment)
chain: not shown
notes: UBA1 C-terminal ubiquitin fold domain (UFD), aa942-1058; The pull-down methods name the construct 'AAD-UFD'; also called UFD fragment of UBA1
As for B1, the binding result in experiment [1] and in experiment [2] was “binds” throughout.

B2: MBP-UFD (C1040A) (domain or fragment)
chain: not shown
notes: UBA1 ubiquitin fold domain (UFD), aa942-1058, with C1040A; also called MBP-UFD with cysteine mutation; source: recombinant
As for B2, the binding result in experiment [2] is reported as “binds”.

B3: MBP-UFD (C1039A) (domain or fragment)
chain: not shown
notes: UBA1 ubiquitin fold domain (UFD), aa942-1058, with C1039A; also called MBP-UFD with cysteine mutation; source: recombinant
For the molecule B3, in experiment [2], the binding result was “binds”.
